Data reported in patent US20250388652A1 (BEIJING WISDOMAB BIOTECHNOLOGY, published 2025).
Substitutions are numbered along the chain they refer to.

B1: anti-RSV monoclonal antibody Clesrovimab (RB1) (antibody, V domains shown)
VH: EVQLVESGGGLVRPGRSLRLSCTVSGFSFDDSAMSWVRQAPGKGLEWISFIKSKTYGGTKEYAASVKGRFTISRDDSKNIAYLQMNSLKTEDTAVYYCTRGAPYGGNSDYYYGLDVWGQGTTVTVSS
VL: DIQMTQSPSSLSASVGDRVTITCRTSQDVRGALAWYQQKPGKAPKLLIFDASSLETGVPSRFSGSGSGTVFTLTISSLQPEDFAAYYCQQFLDFPFTFGQGTRLEIK
B2: recombinant monoclonal antibody R3B1h1 against F protein of RSV (human IgG1-K version) (antibody, V domains shown)
VH: QVQLVQSGAEVKKPGSSVKVSCKASGGLLEDYIINWVRQAPGQGLEWMGGIIPVLGTVHYGPKFQGRVTITADESTSTAYMELSSLRSEDTAVYYCATETAIVVTESYRPHFFDNWGQGTLVTVSS
VL: DIQMTQSPSSLSASVGDRVTITCQASQDIVNYLNWYQQKPGKAPKLLIYVASNLETGVPSRFSGSGSGTDFTFTISSLQPEDIATYYCQEFAGLALNFGGGTKVEIKR
B3: anti-RSV monoclonal antibody Nirsevimab (MEDI8897) (antibody, V domains shown)
VH: B2 VH with K19M, K23Q, L45P, S77D, V93M, I102L, T105S, S107T, R109L, F112Y
VL: DIQMTQSPSSLSAAVGDRVTITCQASQDIVNYLNWYQQKPGKAPKLLIYVASNLETGVPSRFSGSGSGTDFSLTISSLQPEDVATYYCQQYDNLPLTFGGGTKVEIK
B4: recombinant monoclonal antibody R22B1 against F protein of RSV (human IgG1-K version) (antibody, V domains shown)
VH: QVQLVQSGAEVKKPGSSVMVSCQASGDPLQNYIINWVRQAPGQGPEWMGAIIPALGSAHYGPKFQGRVTITADESTDTAYMELSSLRSEDTAMYYCATETAVIISESYLPHFFDNWGQGTLVTVSS
VL: B2 VL with S14A, T72S, F73L, I83V, F91Y, A92D, G93S, N97A
B5: anti-RSV monoclonal antibody Palivizumab (Hu1129) (antibody, V domains shown)
VH: QVTLRESGPALVKPTQTLTLTCTFSGFSLSTSGMSVGWIRQPPGKALEWLADIWWDDKKDYNPSLKSRLTISKDTSKNQVVLKVTNMDPADTATYYCARSMITNWYFDVWGAGTTVTVSS
VL: DIQMTQSPSTLSASVGDRVTITCKCQLSVGYMHWYQQKPGKAPKLWIYDTSKLASGVPSRFSGSGSGTEFTLTISSLQPDDFATYYCFQGSGYPFTFGGGTKLEIK

Legend:
[1] = biological target: T1, F protein mutant RSV-DS-Cav1-A with a DS-Cav1 structure before fusion (respiratory syncytial virus subtype A, …, UniProt P03420 26-513)
[2] = biological target: T2, F protein of strain 18537 of RSV subtype B (respiratory syncytial virus subtype B, …, UniProt P13843 26-574); assay: cell-based or functional assay
[3] = biological target: T3, F protein of strain A2 of RSV subtype A (respiratory syncytial virus subtype A, …, UniProt P03420 26-574); assay: cell-based or functional assay
[4] = biological target: T2, F protein of strain 18537 of RSV …; assay: cell-based or functional assay; remark: listed apart in the source
[5] = biological target: T1, F protein mutant RSV-DS-Cav1-A with a …; remark: listed apart in the source
[6] = biological target: T3, F protein of strain A2 of RSV subtype A; assay: cell-based or functional assay; remark: listed apart in the source

Binder	Kd [1]	koff [1]	kon [1]	IC50(nM), inhibition of strain RSV/18537 infection of Hep-2 cells (RFFIT) [2]	neutralisation activity against RSV/A2 relative to Clesrovimab, by IC50 [3]	neutralisation activity against RSV/A2 relative to Nirsevimab, by IC50 [3]	neutralisation activity against RSV/A2 relative to Palivizumab, by IC50 [3]	neutralisation activity against RSV/18537 relative to Clesrovimab, by IC50 [4]	neutralisation activity against RSV/18537 relative to Nirsevimab, by IC50 [4]	neutralisation activity against RSV/18537 relative to Palivizumab, by IC50 [4]	EC50 (read off the curve) [5]	IC50(nM), inhibition of RSV/A2 strain infection of Hep-2 cells (RFFIT) [6]
B1	17600 pM	0.000351 s⁻¹	20000 M⁻¹ s⁻¹	0.088 nM	–	–	–	–	–	–	–	–
B2	621 pM	2.37e-05 s⁻¹	31800 M⁻¹ s⁻¹	–	~12 fold	~5 fold	~410 fold	~12 fold	~18 fold	~545 fold	~100 pM	0.00516 nM
B3	477 pM	1.5e-05 s⁻¹	31500 M⁻¹ s⁻¹	0.139 nM	–	–	–	–	–	–	–	–
B4	354 pM	1.41e-05 s⁻¹	39900 M⁻¹ s⁻¹	0.111 nM	–	–	–	–	–	–	–	–
B5	2600 pM	8.2e-05 s⁻¹	31600 M⁻¹ s⁻¹	4.15 nM	–	–	–	–	–	–	–	–
